# Source: patent publication US20050249739A1
# Biological target: S protein of SARS-CoV (Urbani strain) on virus (SARS-CoV (Urbani strain)) (UniProt P59594)
# Experiment: cell-based or functional assay
substance,measurement,value
80R IgG1 (antibody),micro-neutralization assay: fold more effective than 80R scFv on a molar basis,20 fold
